Patent US20250177557A1, “METHODS OF PRODUCING MICROBUBBLE DRUG CONJUGATES, VIRAL GENE THERAPY MICROBUBBLE CONJUGATES AND TARGETED MICROBUBBLES” (priority 2022, published 2025)

System: human SHSY-5Y cells
Assay: Neuroprotection of differentiated SHSY-5Y cells against parkinsonian neurotoxins (CFDA cell viability)
Format: cell-based
Settings: pre-treatment, rhGDNF 50 ng/ml, CDNF-MDCs 25-250 ng/ml
Protocol: Neuroprotection was tested in the well-established neuronal model of human SHSY-5Y cells (Lopes, F. M.,. et al. (2010) Brain Res. 1337, 85-94) treated with parkinsonian neurotoxins. Human SHSY-5Y cells were grown in 24 well dishes and differentiated into neuron-like cells by treatment with 10 μM retinoic acid (RA) for 7 days (FIG. 8A).
Cell viability was quantified by the CFDA assay as described previously (Sandhu, J. K., et al. (2009) Neurobiol. Dis. 33, 405-414.).
Recombinant human GDNF at 50 ng/ml was used as a positive control.

B1: rhGDNF: Recombinant human GDNF, positive control (protein, UniProt P39905 78-211, looked up)
Glial cell line-derived …: SPDKQMAVLPRRERNRQAAAANPENSRGKGRRGQRGKNRGCVLTAIHLNVTDLGLGYETKEELIFRYCSGSCDAAETTYDKILKNLSRNRRLVSDKVGQACCRPIAFDDDLSFLDDNLVYHILRKHSAKRCGCI
1.0 μM thapsigargin ~16 h
  Neuroprotection against thapsigargin (cell viability): protected from cell death
1.0 mM MPP+ ~16 h
  Neuroprotection against MPP+ (cell viability): protected from cell death
